Experiments:
[1] = Solubility of PTH as a function of pH; assay type: physicochemical
Description: While not being bound by any theory, it is believed that this phenomena was due to the salts (e.g., MW ˜60) in the PTH solution diffusing into the physiological solution at a rate that exceeded the rate of diffusion of the PTH (e.g., MW ˜4000) due, for example, to the molecular weight (MW) dependence of diffusion rate, to such an extent that the pH of the PTH solution increased to a point exceeding that required to keep the PTH in solution. (For example, at pH 3, the PTH has a solubility of about 100 μg/ml and at pH 7, the PTH has a solubility of about 20 μg/ml.)

skeletal homeostasis = conditions: cited from earlier work

parathyroid hormone [PTH]
solubility ([1]; pH 3): about 100 μg/ml | solubility ([1]; pH 7): about 20 μg/ml | bone volume (skeletal homeostasis; daily dose given as one single injection): dose dependent increase | effect on serum calcium (skeletal homeostasis; in vivo): dose dependent increase | effect on serum calcium levels (skeletal homeostasis; in vivo): practically no effect | result on bone (skeletal homeostasis; same daily dose by continuous infusion with subcutaneous mini-osmotic pump): bone loss

From patent publication US8277440B2, “Implantable device for controlled, extended delivery of parathyroid hormone” (MicroCHIPS, Inc., priority 2002, dated 2012)
